Target: MBP-torsinAΔE (human) (UniProt O14656)
Experiment: pull-down

fold nesprin-3α pulled down relative to MBP-torsinA: 3 fold
B1: nesprin-3α (endogenous, mouse fibroblasts) (natural protein)
chain: MTQQPQEDFERSVEDAQAWMKVIQEQLQVNDNTKGPRAALEARLRETEKICQLESEGMVKVELVLRAAEALLATCQEGQKPEILARLRDIKSQWEETVTYMTHCHSRIEWVWLHWSEYLLAQDEFYRWFQKMVVALEPPVELQLGLKEKQWQLSHAQVLLHNVDNQAVLLDRLLEEAGSLFSRIGDPSVDEDAQKRMKAEYDAVKARAQRRVDLLAQVAQDHEQYREDVNEFQLWLKAVVEKVHSCLGRNCKLATELRLSTLQDIAKDFPRGEESLKRLEEQAVGVIQNTSPLGAEKISGELEEMRGVLEKLRVLWKEEEGRLRGLLQSRGDCEQQIQQLEAELGDFKKSLQRLAQEGLEPTVKTATEDELVAQWRLFSGTRAALASEEPRVDRLQTQLKKLVTFPDLQSLSDSVVATIQEYQSMKGKNTRLHNATRAELWQRFQRPLNDLQLWKALAQRLLDITASLPDLASIHTFLPQIEAALTESSRLKEQLAMLQLKTDLLGSIFGQERAATLLEQVTSSVRDRDLLHNSLLQRKSKLQSLLVQHKDFGVAFDPLNRKLLDLQARIQAEKGLPRDLPGKQVQLLRLQGLQEEGLDLGTQIEAVRPLAHGNSKHQQKVDQISCDQQALQRSLEDLVDRCQQNVREHCTFSHRLSELQLWITMATQTLESHQGDVRLWDAESQEAGLETLLSEIPEKEVQVSLLQALGQLVMKKSSPEGATMVQEELRKLMESWQALRLLEENMLSLMRNQQLQRTEVDTGKKQVFTNNIPKAGFLINPQDPIPRRQHGANPLEGHDLPEDHPQLLRDFEQWLQAENSKLRRIITMRVATAKDLRTREVKLQELEARIPEGQHLFENLLRLRPARDPSNELEDLRYRWMLYKSKLKDSGHLLTESSPGELTAFQKSRRQKRWSPCSLLQKACRVALPLQLLLLLFLLLLFLLPAGEEERSCALANNFARSFALMLRYNGPPPT

— PMC3539201
